According to patent US12214059B2, “Cleavable radioligands for targeting cell surface receptors and uses thereof” (Full-Life Te[…] Limited, priority 2021, dated 2025):

Key:
PSMA = target: T1, PSMA (Homo sapiens, UniProt Q04609); experiment: Cell-based radioligand competitive binding assay (^125I-C-8, LNCaP cells); conditions: C-1 = 1.00
T1 construct: host or cells: LNCaP cells
Method: The culture medium was replaced with fresh medium every 2-3 days. Experiments were performed with cells at 70-80% confluence.
The final volume in each well was maintained at 200 μL and insufficient volume was adjusted by the binding buffer.

[1] = system: PC-3 PIP tumor-bearing mice; experiment: Biodistribution study in SCID mice bearing PC3-PIP tumor; type: in vivo, mouse; conditions: for T/K at 4 h (tumor uptake/kidney uptake) / T at 24 h (tumor uptake) / T/K at 24 h (tumor uptake/kidney uptake) / T at 96 h (tumor uptake) / T/K at 96 h (tumor uptake/kidney uptake): PC3 PIP tumor-bearing mice
Method: Biodistribution Study in SCID Mice Bearing PC3-PIP Tumor
Severe combined immunodeficient (ICR-SCID) mice from the Institute of Cancer Research (Taconic Farms, Germantown, NY) were utilized for these studies. […] These mice received bilateral subcutaneous rear flank injections of approximately 10×10^6 PC-3 PIP cells (prostate cancer cell PC-3 stably expressing human PSMA) suspended in 100 μL of 0.9% NaCl. […] The tissues and organs were weighed, counted in a PerkinElmer Wizard 3 automatic γ counter, and the percent injected dose (% ID) and % ID/g of each organ or tissue were calculated, as shown in Tables 5-24 and FIG. 1 and FIG. 2.

[2] = Ex-vivo mouse plasma stability study of ^177Lu-labeled compounds; type: in vitro ADME; conditions: 37° C.
Method: Plasma Stability Study (Mouse and Human)
Mouse blood was collected via cardiac puncture of the left ventricle. Blood was placed into heparin-coated microfuge tubes and then centrifuged at 3500 rpm for 10 min to separate plasma for stability studies. Human plasma was purchased directly.
At each time point (0, 1, 2, 4, 24, 48 72 h), an aliquot of 25 μL sample was taken and mixed with 100 μL methanol containing 1% formic acid, vertex for 30-60 sec, then centrifuged at 20000 rpm for 10 min. 100 μL supernatant was collected and diluted with 40 μL H2O. 100 μL of the resulting mixture was injected to radio-HPLC for stability assessment, as shown examples FIG. 2 and FIG. 3. The best-fit T½ value of test compounds were calculated by fitting the data with linear or non-linear regression using GraphPad Prism 8.0.1.

LNCap tumor-bearing mice = experiment: Biodistribution study in CB-17 SCID mice bearing LNCap tumor; type: in vivo, mouse
Method: Biodistribution Study in CB-17 SCID Mice Bearing LNCap Tumor
All animal care and experimental procedure were performed by following the animal protocols approved by the ethics committee of China Institute of Radiation Protection. The CB-17 SCID mice (Charles River, Beijing) were utilized for these studies. […] These mice received subcutaneous rear flank injections of approximately 4×10^6 LNCap cells suspended in 200 μL of phosphate-buffered saline (PBS) and Matrigel (Corning) (1/1).

[3] = based on the mean value of the IC50 number
[4] = * = value obtained using nonlinear regression

T1 sequence (Q04609 whole entry): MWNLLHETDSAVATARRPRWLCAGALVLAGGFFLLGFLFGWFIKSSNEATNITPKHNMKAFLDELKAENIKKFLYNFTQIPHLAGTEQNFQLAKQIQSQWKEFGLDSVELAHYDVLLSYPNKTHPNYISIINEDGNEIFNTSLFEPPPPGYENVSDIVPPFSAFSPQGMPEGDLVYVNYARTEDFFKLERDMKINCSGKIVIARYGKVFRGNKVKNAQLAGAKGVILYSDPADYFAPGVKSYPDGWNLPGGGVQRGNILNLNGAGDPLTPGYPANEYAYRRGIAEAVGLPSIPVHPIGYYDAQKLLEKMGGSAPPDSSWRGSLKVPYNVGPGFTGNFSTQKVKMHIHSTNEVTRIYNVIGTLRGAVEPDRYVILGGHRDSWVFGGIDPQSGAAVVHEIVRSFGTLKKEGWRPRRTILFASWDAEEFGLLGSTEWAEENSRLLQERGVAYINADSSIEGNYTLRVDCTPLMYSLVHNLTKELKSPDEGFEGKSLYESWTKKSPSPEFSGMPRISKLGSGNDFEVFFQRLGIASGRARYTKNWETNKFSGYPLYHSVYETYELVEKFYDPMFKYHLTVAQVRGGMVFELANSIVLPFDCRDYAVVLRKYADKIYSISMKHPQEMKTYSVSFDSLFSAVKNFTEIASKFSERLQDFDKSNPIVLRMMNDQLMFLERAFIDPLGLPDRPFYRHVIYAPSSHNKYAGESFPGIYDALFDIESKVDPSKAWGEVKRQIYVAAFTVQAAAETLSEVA

## O=C(O)CC[C@H](NC(=O)N[C@@H](CCCCNC(=O)[C@H](Cc1ccc2ccccc2c1)NC(=O)[C@H]1CC[C@H](CNC(=O)[C@H](CCCCNC(=O)CCC(=O)NCCSSCCNC(=O)CN2CCN(CC(=O)O)CCN(CC(=O)O)CCN(CC(=O)O)CC2)NC(=O)[C@H](CCC(=O)O)NC(=O)CCCc2ccc(I)cc2)CC1)C(=O)O)C(=O)O [Example I-4, 4pIBA-Glu-Lys(-SSL1-DOTA)-Trx-2NaI-eKuE]
PSMA; [3]
  Relative Binding Affinity: 0.95
PSMA; relative
  Relative Binding Affinity: 0.95
[1]
  T/K at 4 h (tumor uptake/kidney uptake): 0.1
  T at 24 h (tumor uptake): 0.79
  T/K at 24 h (tumor uptake/kidney uptake): 0.2
  T at 96 h (tumor uptake): 0.3
  T/K at 96 h (tumor uptake/kidney uptake): 1.2

## O=C(O)CC[C@H](NC(=O)N[C@@H](CCCCNC(=O)[C@H](Cc1ccc2ccccc2c1)NC(=O)[C@H]1CC[C@H](CNC(=O)[C@H](CCCCNC(=O)CN2CCN(CC(=O)O)CCN(CC(=O)O)CCN(CC(=O)O)CC2)NC(=O)[C@H](CCC(=O)O)NC(=O)CCCc2ccc(I)cc2)CC1)C(=O)O)C(=O)O [Example C-2, 4pIBA-Glu-Lys(DOTA)-Trx-2NaI-eKuE, reference compound]
PSMA; [3]
  Relative Binding Affinity: 1.78
PSMA; relative
  Relative Binding Affinity: 1.78
[2]
  % Remaining 0 min: 100%
  % Remaining 1 h: 100%
  % Remaining 4 h: 100%
  % Remaining 24 h: 100%
  % Remaining 48 h: 100%
  % Remaining 72 h: 100%
[2]; [4]
  T½ (h): Stable
[1]
  T/K at 4 h (tumor uptake/kidney uptake): 0.3
  T at 24 h (tumor uptake): 41.1
  T/K at 24 h (tumor uptake/kidney uptake): 1.0
  T at 96 h (tumor uptake): 20.0
  T/K at 96 h (tumor uptake/kidney uptake): 3.7
[1]; compared to PSMA-617 (C-1)
  uptake ratio between tumor to kidney: poor uptake ratio between tumor to kidney

## Cc1ccc(CCCC(=O)NCCCC[C@H](NC(=O)CN2CCN(CC(=O)O)CCN(CC(=O)O)CCN(CC(=O)O)CC2)C(=O)NCC2CCC(C(=O)N[C@@H](Cc3ccc4ccccc4c3)C(=O)NCCCC[C@H](NC(=O)N[C@@H](CCC(=O)O)C(=O)O)C(=O)O)CC2)cc1 (stereo partly shown) [Example C-10, DOTA-Lys(pTBA)-Trx-2NaI-eKuE]
PSMA; relative
  Relative Binding Affinity: 0.92
LNCap tumor-bearing mice; LNCap tumor-bearing mice, 24 h
  T at 24 h (tumor uptake): 46.5
  T/K at 24 h (tumor uptake/kidney uptake): 0.89
LNCap tumor-bearing mice; LNCap tumor-bearing mice, 96 h
  T at 96 h (tumor uptake): 34.9
  T/K at 96 h (tumor uptake/kidney uptake): 3.17
LNCap tumor-bearing mice; compared to PSMA-617 (C-1)
  uptake ratio between tumor to kidney: poor uptake ratio between tumor to kidney

## O=C(O)CC[C@H](NC(=O)N[C@@H](CCCCNC(=O)[C@H](Cc1ccc2ccccc2c1)NC(=O)[C@H]1CC[C@H](CNC(=O)COCCOCCNC(=O)[C@H](CCCCNC(=O)CCCOC(=O)CNC(=O)CN2CCN(CC(=O)O)CCN(CC(=O)O)CCN(CC(=O)O)CC2)NC(=O)[C@H](CCCCNC(=O)COCCOCCNC(=O)COCCOCCNC(=O)[C@H](CCC(=O)O)NC(=O)CCCc2ccc(I)cc2)NC(=O)COCCOCCNC(=O)COCCOCCNC(=O)[C@H](CCC(=O)O)NC(=O)CCCc2ccc(I)cc2)CC1)C(=O)O)C(=O)O [Example I-7, 4pIBA-Glu-OEG-OEG-Lys(-OEG-OEG-Glu-4pIBA)-Lys(-ESL1-DOTA)-OEG-Trx-2NaI-eKuE]
PSMA; [3]
  Relative Binding Affinity: 0.56
PSMA; relative
  Relative Binding Affinity: 0.54
[1]
  T/K at 4 h (tumor uptake/kidney uptake): 0.7
  T at 24 h (tumor uptake): 16.7
  T/K at 24 h (tumor uptake/kidney uptake): 0.9
  T at 96 h (tumor uptake): 2.6
  T/K at 96 h (tumor uptake/kidney uptake): 1.4

## O=C(O)CC[C@H](NC(=O)N[C@@H](CCCCNC(=O)[C@H](Cc1ccc2ccccc2c1)NC(=O)[C@H]1CC[C@H](CNC(=O)[C@H](CCCCNC(=O)CN2CCN(CC(=O)O)CCN(CC(=O)O)CCN(CC(=O)O)CC2)NC(=O)CCCOC(=O)CNC(=O)[C@H](CCC(=O)O)NC(=O)CCCc2ccc(I)cc2)CC1)C(=O)O)C(=O)O [Example I-2, 4pIBA-Glu-ESL1-Lys(DOTA)-Trx-2NaI-eKuE]
PSMA; [3]
  Relative Binding Affinity: 1.59
PSMA; relative
  Relative Binding Affinity: 0.75
[2]
  % Remaining 0 min: 100%
  % Remaining 1 h: 95.6%
  % Remaining 4 h: 93.2%
  % Remaining 24 h: 76.5%
  % Remaining 48 h: 67.5%
  % Remaining 72 h: 57.3%
[2]; [4]
  T½: 80.4 h
[1]
  T/K at 4 h (tumor uptake/kidney uptake): 0.6
  T at 24 h (tumor uptake): 32.4
  T/K at 24 h (tumor uptake/kidney uptake): 5.0
  T at 96 h (tumor uptake): 9.8
  T/K at 96 h (tumor uptake/kidney uptake): 10.1
[1]; mice bearing PC3-PIP tumor, compared to HTK01169 (C-2)
  uptake ratio between tumor to kidney: improved uptake ratio between tumor to kidney

## (HO-C18-gGlu-Lys(-OEG-DOTA)-OEG-OEG-OEG-NH2CH2CH2NH-TMA(-OEG-Trx-2NaI-eKuE)2 [Example C-7, reference compound]
PSMA; [3]
  Relative Binding Affinity: 0.14
PSMA; relative
  Relative Binding Affinity: 0.14

## O=C(O)CCCCCCCCCCCCCCCCC(=O)N[C@@H](CCC(=O)NCCOCCOCC(=O)NCCOCCOCC(=O)N[C@@H](CCCCNC(=O)CCCOC(=O)CNC(=O)CNC(=O)CNC(=O)CNC(=O)CN1CCN(CC(=O)O)CCN(CC(=O)O)CCN(CC(=O)O)CC1)C(=O)NCCOCCOCC(=O)NC[C@H]1CC[C@H](C(=O)N[C@@H](Cc2ccc3ccccc3c2)C(=O)NCCCC[C@H](NC(=O)N[C@@H](CCC(=O)O)C(=O)O)C(=O)O)CC1)C(=O)O [Example I-46, HO-C18-gGlu-OEG-OEG-Lys(-ESL1-Gly-Gly-Gly-DOTA)-OEG-Trx-2NaI-eKuE]
[2]
  % Remaining 0 min: 100%
  % Remaining 1 h: 95.1%
  % Remaining 4 h: 93.5%
  % Remaining 24 h: 81.9%
  % Remaining 48 h: 70.6%
  % Remaining 72 h: 55.9%
[2]; [4]
  T½ (h): 102* h

## DOTA-gGlu(-eLys-4pIBA)-Trx-2NaI-eKuE [Example C-9, reference compound]
PSMA; [3]
  Relative Binding Affinity: 0.92

## HO-C18-gGlu-OEG-OEG-Gly-5hPA-Lys(DOTA)-OEG-Trx-2NaI-eKuE [Example I-49]
PSMA; [3]
  Relative Binding Affinity: 0.09
PSMA; relative
  Relative Binding Affinity: 0.09

## HO-C18-gGlu-OEG-OEG-OEG-Lys(DOTA)-OEG-Trx-2NaI-eKuE [Example C-6, reference compound]
PSMA; [3]
  Relative Binding Affinity: 0.05
PSMA; relative
  Relative Binding Affinity: 0.05

## O=C(O)CC[C@H](NC(=O)N[C@@H](CCCCNC(=O)[C@H](Cc1ccc2ccccc2c1)NC(=O)[C@H]1CC[C@H](CNC(=O)[C@H](CCCCNC(=O)CCCOC(=O)CNC(=O)CN2CCN(CC(=O)O)CCN(CC(=O)O)CCN(CC(=O)O)CC2)NC(=O)[C@H](CCC(=O)O)NC(=O)CCCc2ccc(I)cc2)CC1)C(=O)O)C(=O)O [Example I-3, 4pIBA-Glu-Lys(-ESL1-DOTA)-Trx-2NaI-eKuE]
PSMA; [3]
  Relative Binding Affinity: 1.30
PSMA; relative
  Relative Binding Affinity: 1.30
[2]
  % Remaining 0 min: 100%
  % Remaining 1 h: 88.6%
  % Remaining 4 h: 54.8%
  % Remaining 24 h: 13.0%
  % Remaining 48 h: 9.30%
  % Remaining 72 h: 3.99%
[2]; [4]
  T½ (h): 4.9* h
[1]
  T/K at 4 h (tumor uptake/kidney uptake): 0.3
  T at 24 h (tumor uptake): 13.9
  T/K at 24 h (tumor uptake/kidney uptake): 0.8
  T at 96 h (tumor uptake): 6.3
  T/K at 96 h (tumor uptake/kidney uptake): 4.0

## [HO-C20-gGlu-Lys(-ESL1-ESL1-ESL1-DOTA)-OEG-OEG-OEG-NH2CH2CH2NH—]-TMA-(-OEG-Trx-2NaI-eKuE)2 [Example I-44]
PSMA; [3]
  Relative Binding Affinity: 0.13
